B1: GFP-CRY1 (N. benthamiana) [Arabidopsis] / cLUC-COP1 [Arabidopsis] (parent)
chain 1: MSGSVSGCGSGGCSIVWFRRDLRVEDNPALAAAVRAGPVIALFVWAPEEEGHYHPGRVSRWWLKNSLAQLDSSLRSLGTCLITKRSTDSVASLLDVVKSTGASQIFFNHLYDPLSLVRDHRAKDVLTAQGIAVRSFNADLLYEPWEVTDELGRPFSMFAAFWERCLSMPYDPESPLLPPKKIISGDVSKCVADPLVFEDDSEKGSNALLARAWSPGWSNGDKALTTFINGPLLEYSKNRRKADSATTSFLSPHLHFGEVSVRKVFHLVRIKQVAWANEGNEAGEESVNLFLKSIGLREYSRYISFNHPYSHERPLLGHLKFFPWAVDENYFKAWRQGRTGYPLVDAGMRELWATGWLHDRIRVVVSSFFVKVLQLPWRWGMKYFWDTLLDADLESDALGWQYITGTLPDSREFDRIDNPQFEGYKFDPNGEYVRRWLPELSRLPTDWIHHPWNAPESVLQAAGIELGSNYPLPIVGLDEAKARLHEALSQMWQLEAASRAAIENGSEEGLGDSAEVEEAPIEFPRDITMEETEPTRLNPNRRYEDQMVPSITSSLIRPEEDEESSLNLRNSVGDSRAEVPRNMVNTNQAQQRRAEPASNQVTAMIPEFNIRIVAESTEDSTAESSSSGRRERSGGIVPEWSPGYSEQFPSEENGIGGGSTTSSYLQNHHEILNWRRLSQTG
chain 2: MEEISTDPVVPAVKPDPRTSSVGEGANRHENDDGGSGGSEIGAPDLDKDLLCPICMQIIKDAFLTACGHSFCYMCIITHLRNKSDCPCCSQHLTNNQLYPNFLLDKLLKKTSARHVSKTASPLDQFREALQRGCDVSIKEVDNLLTLLAERKRKMEQEEAERNMQILLDFLHCLRKQKVDELNEVQTDLQYIKEDINAVERHRIDLYRARDRYSVKLRMLGDDPSTRNAWPHEKNQIGFNSNSLSIRGGNFVGNYQNKKVEGKAQGSSHGLPKKDALSGSDSQSLNQSTVSMARKKRIHAQFNDLQECYLQKRRQLADQPNSKQENDKSVVRREGYSNGLADFQSVLTTFTRYSRLRVIAEIRHGDIFHSANIVSSIEFDRDDELFATAGVSRCIKVFDFSSVVNEPADMQCPIVEMSTRSKLSCLSWNKHEKNHIASSDYEGIVTVWDVTTRQSLMEYEEHEKRAWSVDFSRTEPSMLVSGSDDCKVKVWCTRQEASVINIDMKANICCVKYNPGSSNYIAVGSADHHIHYYDLRNISQPLHVFSGHKKAVSYVKFLSNNELASASTDSTLRLWDVKDNLPVRTFRGHTNEKNFVGLTVNSEYLACGSETNEVYVYHKEITRPVTSHRFGSPDMDDAEEEAGSYFISAVCWKSDSPTMLTANSQGTIKVLVLAA

Variants of: B1
Test: luciferase complementation imaging (LCI) competition assay (cLUC-COP1 + HY5-nLUC)
Conditions: with cLUC-COP1 [Arabidopsis]; transfected N. benthamiana leaves, n = 22, CCD camera; value is the mean ('+'), median about 0.95; GFP-NLS-GUS control = 1; higher signal = less displacement …; parent: 0.6; read off a plot

screen value	Variant
1.1	chain 1 V548A P549A

Variants of: B1
Test: mammalian three-hybrid (M3H) competition assay (displacement of HY5-VP16 from E-COP1)
Conditions: with E-COP1 [Arabidopsis]; CHO-K1 cells, blue light (10 μmol m−2 s−1), 24 h; higher signal = less displacement of HY5 by the CRY1 variant; GFP control est. 150; parent: 30; read off a plot

screen value (Au (SEAP/sNLuc))	Variant
150	chain 1 V548A P549A

Same assay, conditions: with E-COP1 [Arabidopsis]; CHO-K1 cells, darkness, 24 h; higher signal = less displacement of HY5 by the CRY1 variant; GFP control est. 150; parent: 76; read off a plot

screen value (Au (SEAP/sNLuc))	Variant
130	chain 1 V548A P549A

Source: PMC11886768 (2025)
